We go through 26 molecules from US20240279345A1, “ALPHA 5 BETA 1 INTEGRIN BINDING AGENTS AND USES THEREOF” (PASITHEA THERAPEUTICS CORP., priority 2021, published 2024).

Residue numbers refer to the chain shown, from its start.

The target in experiment [1] is α5β1 integrin on U87MG cells (human, UniProt P08648 42-1049; P05556 21-798). As to the kind of experiment: cell-based or functional assay.
Experiment [2] deals with T1, purified recombinant human α5β1 integrin heterodimer, 6×His tagged (rh-α5β1); Acro Biosystems, cat. no. … (human, UniProt P08648 42-995; P05556 21-728).
T1 construct: bought recombinant heterodimer; also called rh-α5β1-6×His tagged protein; His-tagged-α5β1
T1 sequence (P08648 42-995 limits assumed, form in doubt, chain 1 of 2): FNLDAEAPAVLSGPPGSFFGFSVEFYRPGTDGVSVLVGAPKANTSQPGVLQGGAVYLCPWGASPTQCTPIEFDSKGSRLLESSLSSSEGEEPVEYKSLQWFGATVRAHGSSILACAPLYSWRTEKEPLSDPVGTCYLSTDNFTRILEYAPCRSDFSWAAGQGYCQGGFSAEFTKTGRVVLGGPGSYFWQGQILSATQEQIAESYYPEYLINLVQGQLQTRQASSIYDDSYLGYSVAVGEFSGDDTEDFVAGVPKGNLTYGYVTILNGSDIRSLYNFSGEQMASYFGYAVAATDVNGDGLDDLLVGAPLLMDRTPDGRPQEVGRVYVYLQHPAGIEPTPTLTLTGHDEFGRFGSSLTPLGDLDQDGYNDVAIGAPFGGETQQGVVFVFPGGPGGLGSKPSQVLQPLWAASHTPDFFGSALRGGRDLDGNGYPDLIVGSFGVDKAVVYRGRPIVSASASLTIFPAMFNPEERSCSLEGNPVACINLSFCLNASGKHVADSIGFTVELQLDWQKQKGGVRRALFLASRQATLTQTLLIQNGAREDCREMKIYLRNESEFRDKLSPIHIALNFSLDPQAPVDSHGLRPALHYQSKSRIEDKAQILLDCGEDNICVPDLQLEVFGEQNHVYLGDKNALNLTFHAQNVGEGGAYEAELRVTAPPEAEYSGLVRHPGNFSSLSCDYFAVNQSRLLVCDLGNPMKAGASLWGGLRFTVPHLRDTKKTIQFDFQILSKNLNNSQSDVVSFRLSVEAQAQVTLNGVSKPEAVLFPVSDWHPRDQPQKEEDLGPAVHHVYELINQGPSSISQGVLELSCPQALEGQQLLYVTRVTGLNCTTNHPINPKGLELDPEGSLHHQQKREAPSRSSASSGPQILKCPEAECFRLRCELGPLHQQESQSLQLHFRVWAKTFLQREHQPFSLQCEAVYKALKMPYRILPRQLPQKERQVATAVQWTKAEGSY
T1 sequence (P05556 21-728 limits assumed, form in doubt, chain 2 of 2): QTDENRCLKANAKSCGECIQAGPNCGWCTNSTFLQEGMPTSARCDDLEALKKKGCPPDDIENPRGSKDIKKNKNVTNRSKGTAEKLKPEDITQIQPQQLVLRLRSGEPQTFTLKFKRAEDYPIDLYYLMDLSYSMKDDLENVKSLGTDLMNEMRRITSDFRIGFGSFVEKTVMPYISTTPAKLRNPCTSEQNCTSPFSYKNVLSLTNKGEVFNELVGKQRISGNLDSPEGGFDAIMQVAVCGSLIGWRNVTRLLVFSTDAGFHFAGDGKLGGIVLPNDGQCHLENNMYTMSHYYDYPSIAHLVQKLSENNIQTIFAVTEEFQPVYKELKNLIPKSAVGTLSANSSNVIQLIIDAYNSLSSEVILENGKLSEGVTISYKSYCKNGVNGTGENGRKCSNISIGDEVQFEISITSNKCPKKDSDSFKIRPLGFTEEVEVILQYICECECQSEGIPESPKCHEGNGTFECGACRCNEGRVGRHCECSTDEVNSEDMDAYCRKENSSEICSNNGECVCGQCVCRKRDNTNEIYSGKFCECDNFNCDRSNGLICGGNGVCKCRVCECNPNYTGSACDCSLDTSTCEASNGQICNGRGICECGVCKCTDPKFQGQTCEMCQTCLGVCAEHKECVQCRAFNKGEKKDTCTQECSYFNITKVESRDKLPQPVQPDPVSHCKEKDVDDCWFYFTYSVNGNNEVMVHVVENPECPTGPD
As to the kind of experiment: BLI (Octet), supernatant mAb on anti-mouse IgG Fc sensor, 20 nM rh-α5β1. The text has this: Anti-Mouse IgG Fc biosensors were used to load each clone supernatant. Assay steps were as follows: Sensor Check (30s)-->Load Ab (700s)-->Quench (480s)-->Baseline(480s)-->Ab Assoc. (600s)-->Dissoc. (600s).

In experiment [3] the target is T2, α5β1 integrin on cells (PMA-activated K562 cells; U87MG cells) (human, UniProt P08648 42-1049; P05556 21-798).
T2 construct: Endogenous integrin of human cell lines; also called cellular α5β1 integrin; cell surface α5β1 integrin receptors
T2 sequence (P08648 42-1049 limits assumed, chain 1 of 2): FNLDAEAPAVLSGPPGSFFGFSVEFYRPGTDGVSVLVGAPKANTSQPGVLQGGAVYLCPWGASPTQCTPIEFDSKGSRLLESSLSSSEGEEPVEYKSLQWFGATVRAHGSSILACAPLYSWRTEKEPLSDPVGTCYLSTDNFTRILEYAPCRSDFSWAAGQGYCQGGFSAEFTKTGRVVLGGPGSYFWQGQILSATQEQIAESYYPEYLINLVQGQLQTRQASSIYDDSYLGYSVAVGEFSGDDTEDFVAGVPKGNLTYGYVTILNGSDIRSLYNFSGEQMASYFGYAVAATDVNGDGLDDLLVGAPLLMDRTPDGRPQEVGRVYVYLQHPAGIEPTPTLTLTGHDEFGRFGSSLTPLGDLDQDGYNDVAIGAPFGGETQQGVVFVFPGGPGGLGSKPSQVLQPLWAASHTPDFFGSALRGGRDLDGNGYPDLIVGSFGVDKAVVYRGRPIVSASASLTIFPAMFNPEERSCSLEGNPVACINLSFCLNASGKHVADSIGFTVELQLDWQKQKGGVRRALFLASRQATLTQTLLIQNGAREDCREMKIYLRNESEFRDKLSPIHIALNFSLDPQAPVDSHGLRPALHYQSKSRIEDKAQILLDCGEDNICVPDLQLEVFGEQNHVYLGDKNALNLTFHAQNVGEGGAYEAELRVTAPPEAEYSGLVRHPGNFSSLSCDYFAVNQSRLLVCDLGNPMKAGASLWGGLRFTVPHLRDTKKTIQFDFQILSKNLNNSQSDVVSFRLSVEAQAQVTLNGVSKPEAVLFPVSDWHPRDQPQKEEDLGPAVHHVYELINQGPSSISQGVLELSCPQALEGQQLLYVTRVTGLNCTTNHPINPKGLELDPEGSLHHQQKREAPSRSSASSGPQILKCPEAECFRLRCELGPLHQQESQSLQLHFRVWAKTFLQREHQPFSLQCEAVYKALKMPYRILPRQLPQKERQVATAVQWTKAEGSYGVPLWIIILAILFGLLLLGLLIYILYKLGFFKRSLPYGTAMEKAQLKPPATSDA
T2 sequence (P05556 21-798 limits assumed, chain 2 of 2): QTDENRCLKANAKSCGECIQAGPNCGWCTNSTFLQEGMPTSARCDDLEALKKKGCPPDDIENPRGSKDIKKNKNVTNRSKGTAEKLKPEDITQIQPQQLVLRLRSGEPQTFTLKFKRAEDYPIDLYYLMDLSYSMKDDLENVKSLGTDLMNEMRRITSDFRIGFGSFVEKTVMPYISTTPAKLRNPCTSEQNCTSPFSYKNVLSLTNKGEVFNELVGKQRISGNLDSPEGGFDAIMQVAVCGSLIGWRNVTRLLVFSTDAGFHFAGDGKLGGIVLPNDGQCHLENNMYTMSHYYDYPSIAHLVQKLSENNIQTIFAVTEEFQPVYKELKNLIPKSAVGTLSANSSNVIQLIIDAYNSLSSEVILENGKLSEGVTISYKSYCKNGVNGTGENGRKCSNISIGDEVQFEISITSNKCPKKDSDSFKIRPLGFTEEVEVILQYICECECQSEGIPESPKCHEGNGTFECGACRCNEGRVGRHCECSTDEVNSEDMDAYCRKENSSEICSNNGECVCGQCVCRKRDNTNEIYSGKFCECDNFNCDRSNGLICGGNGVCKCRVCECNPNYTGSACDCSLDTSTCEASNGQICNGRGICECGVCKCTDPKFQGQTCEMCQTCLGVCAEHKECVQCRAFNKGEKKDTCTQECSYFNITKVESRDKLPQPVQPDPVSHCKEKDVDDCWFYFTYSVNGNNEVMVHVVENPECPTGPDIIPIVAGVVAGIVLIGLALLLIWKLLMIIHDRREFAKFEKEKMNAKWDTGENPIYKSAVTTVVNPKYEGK
The experiment in a line: flow cytometry on PMA-activated K562 cells, hybridoma supernatant. How it is done:
Four weeks later cells from spleens and draining lymph nodes were fused to create hybridomas. […] In short, hybridoma supernatants were incubated with the activated K562 cells for 20 minutes, washed, then incubated with a fluorescent conjugated detecting antibody for 20 minutes, washed, resuspended in 7-Aminoactinomycin D, and Mean Fluorescence Intensity (MFI) measured on a Guava cytometer (Luminex Corporation, Austin, TX 78727).
On the technique in general: Flow cytometry measures light scatter and fluorescence of single cells or particles in a stream.

In experiment [1], IgG4 Isotype (antibody) registered a Cell Counts (Curve Bottom) of 32000 cells and a Cell Counts (Curve Top) of 50000 cells.

B1: A-4G02 (antibody, V domains shown)
VH: QVQLKESGPGLVAPSQSLSITCTISGFSLTSYGVHWVRQPPGKGLEWLVVIWSDGSTTYNSTLKSRLSISKDNSKSQVFFKMNSLQTDDTAMYYCARHYDYDGDWFAYWGQGTLVTVSA
VL: QIVLTQSPAIMSASLGERVTMTCTASSRVSSNSLHWYQQKPGSSPKLWIYSTSNLASGVPARFSGSGSGTSYSLTISSMEAEDAATYYCHQYLRSPPTFGGGTKLEIK
notes: mouse hybridoma antibody
In the case of B1, in experiment [2], the Kd was determined as 1.23 nM, the koff was found to be 0.000396 s⁻¹ and the kon worked out at 321000 M⁻¹ s⁻¹.

B2: C-8G11 (antibody, V domains shown)
VH: QVQLKESGPDLVAPSQSLSITCTVSGFSLTDYGVHWVRQPPGKGLEWLVVIWSDGSTTYNSALKSRLSITKDTSKRQVFLKMNSLQTDDTAMYYCARHAPSFIRYGSRYDALDYWGQGTSVTVSS
VL: B1 VL with M21L, R28S, S30T, N32S, S33F, L93H
notes: mouse hybridoma
In turn, B2 gave an MFI in experiment [3] of 2690.

B3: A-11G01 (antibody, V domains shown)
VH: QVQLKESGPGLVAPSQSLSITCTISGFSLTTYGVHWVRQPPGKGLEWLVVIWSDGSTTYNSALKSRLNITKDNSKSQVFLKMNSLQTDDTAMYYCVRHGGLLRRDAMDYWGQGTSVTVSS
VL: B1 VL with R28S, L34F, I49L
notes: mouse hybridoma antibody
On to B3, for which, in experiment [2], the equilibrium dissociation constant (Kd) was 5.03 nM, the dissociation rate constant (koff) turned out to be 0.00132 s⁻¹ and the association rate constant (kon) was determined as 261000 M⁻¹ s⁻¹.

B4: A-4G02 (antibody, V domains shown)
VH: B1 VH
VL: B1 VL
notes: mouse hybridoma
Regarding B4, the MFI in experiment [3] turned out to be 1980.

B5: A-3A08 (antibody, V domains shown)
VH: B3 VH
VL: B1 VL with R28S, L34F, I49L
notes: mouse hybridoma antibody
With B5, in experiment [2], the dissociation constant (Kd) worked out at 5.08 nM, the off-rate constant (koff) was found to be 0.00124 s⁻¹ and the on-rate (kon) turned out to be 244000 M⁻¹ s⁻¹.

B6: A2-9A11 (antibody, V domains shown)
VH: B3 VH
VL: B1 VL with R28S, L34F, I49L
notes: mouse hybridoma
In turn, B6 came in with an MFI in experiment [3] of 3400.

B7: A-7D06 (antibody, V domains shown)
VH: B3 VH
VL: B1 VL with R28S, L34F, I49L
notes: mouse hybridoma antibody
Regarding B7, in experiment [2], the Kd worked out at 4.75 nM, the koff worked out at 0.00128 s⁻¹ and the kon was found to be 270000 M⁻¹ s⁻¹.

B8: A-7D06 (antibody, V domains shown)
VH: B3 VH
VL: B1 VL with R28S, L34F, I49L
notes: mouse hybridoma
B8 showed an MFI in experiment [3] of 742.

B9: A2-8H11 (antibody, V domains shown)
VH: B3 VH
VL: B1 VL with R28S, L34F, I49L
notes: mouse hybridoma
In the case of B9, the MFI in experiment [3] turned out to be 4370.

B10: A-15B08 (antibody, V domains shown)
VH: B1 VH
VL: B1 VL
notes: mouse hybridoma antibody (supernatant, or purified by Protein A); NST N-glycosylation site in CDRH2; also called antibody designated A-15B08
For B10, the MFI in experiment [3] was 1390.

B11: C-14D12 IgG4 Chimera (antibody, V domains shown)
VH: B2 VH
VL: B1 VL with M21L, R28S, S30T, N32S, S33F, L93H
Turning to B11, in experiment [1], the “% Inhibition” value turned out to be 78%, the “Cell Counts (Curve Bottom)” value came out at 8040 cells and the “Cell Counts (Curve Top)” value was determined as 37200 cells.

B12: A2-6C10 (antibody, V domains shown)
VH: B3 VH
VL: B1 VL with R28S, L34F, I49L
notes: mouse hybridoma
B12: the MFI in experiment [3] stood at 2120.

B13: C-14D12 (antibody, V domains shown)
VH: B2 VH
VL: B1 VL with M21L, R28S, S30T, N32S, S33F, L93H
notes: mouse hybridoma antibody (supernatant, or purified by Protein A); also called antibody designated C-14D12; C-14D2
In turn, B13 came in with an MFI in experiment [3] of 2020.

B14: C-8G11 (antibody, V domains shown)
VH: B2 VH
VL: B1 VL with M21L, R28S, S30T, N32S, S33F, L93H
notes: mouse hybridoma antibody
With B14, in experiment [2], the dissociation constant (Kd) stood at 0.442 nM, the koff came to 0.00012 s⁻¹ and the kon is 271000 M⁻¹ s⁻¹.

B15: A-15B08 IgG4 Chimera (antibody, V domains shown)
VH: B1 VH
VL: B1 VL
For B15, in experiment [1], the “% Inhibition” value turned out to be 86%, the “Cell Counts (Curve Bottom)” value was determined as 4780 cells and the “Cell Counts (Curve Top)” value came out at 33800 cells.

B16: A-3A08 (antibody, V domains shown)
VH: B3 VH
VL: B1 VL with R28S, L34F, I49L
notes: mouse hybridoma
Take B16: the MFI in experiment [3] came out at 1180.

B17: A2-3B06 (antibody, V domains shown)
VH: B3 VH
VL: B1 VL with R28S, L34F, I49L
notes: mouse hybridoma antibody (supernatant, or purified by Protein A); also called antibody designated A2-3B06
For B17, the MFI in experiment [3] was 2140.

B18: A-11G01 (antibody, V domains shown)
VH: B3 VH
VL: B1 VL with R28S, L34F, I49L
notes: mouse hybridoma
In experiment [3], B18 yielded an MFI of 1610.

B19: A2-5D10 (antibody, V domains shown)
VH: B1 VH with F80L
VL: B1 VL with V3L, R28S, N32R, S33C, S64R, L93Y
notes: mouse hybridoma antibody (supernatant, or purified by Protein A); also called antibody designated A2-5D10
Consider B19, for which the MFI in experiment [3] was determined as 1890.

B20: A-14G08 (antibody, V domains shown)
VH: QVQLQQPGAELVKPGASVKLSCKASGYTFTIYWINWVKQRPGQGLEWIGKIYPGSISTDYNEKFKSKATLTVDTSSSTAYMQLSSLTSDDSAVYYCAITGTGGLAYWGQGTLVTVSA
VL: ENVLTQSPAIMSASLGEKVTMTCRASSSVNYMYWYQQKSDASPKLWIYFTSSLAPGVPGRFSGSGSGNSYSLTISTMEGEDAATYYCQQFTTSPFTFGSGTKLEIK
notes: mouse hybridoma antibody
On to B20, for which, in experiment [2], the Kd worked out at 0.845 nM, the koff was determined as 0.000198 s⁻¹ and the on-rate constant (kon) came out at 234000 M⁻¹ s⁻¹.

B21: A-15H11 (antibody, V domains shown)
VH: B20 VH
VL: B20 VL
notes: mouse hybridoma
Molecule B21 yielded an MFI in experiment [3] of 6570.

B22: A-15H11 (antibody, V domains shown)
VH: B20 VH
VL: B20 VL
notes: mouse hybridoma antibody
Consider B22, for which, in experiment [2], the equilibrium dissociation constant (Kd) worked out at 0.901 nM, the dissociation rate constant (koff) worked out at 0.000193 s⁻¹ and the kon stood at 215000 M⁻¹ s⁻¹.

B23: A-14G08 (antibody, V domains shown)
VH: B20 VH
VL: B20 VL
notes: mouse hybridoma
B23: the MFI in experiment [3] worked out at 4210.

B24: A2-7A05 (antibody, V domains shown)
VH: B20 VH
VL: B20 VL
notes: mouse hybridoma antibody (supernatant, or purified by Protein A); also called antibody designated A2-7A05; A-7A05
The molecule B24 came in with an MFI in experiment [3] of 5500.

B25: A2-7F01 (antibody, V domains shown)
VH: B20 VH with K50N, I56S, D59N, S66T, L104F
VL: B20 VL with T22S, G59T, Y70F, T76S, F90L, T92G, K102R
notes: mouse hybridoma antibody (supernatant, or purified by Protein A); also called antibody designated A2-7F01
B25 had an MFI in experiment [3] of 6260.

Usually Kd stands for the concentration at which binding is half-saturated. A word on the koff: it is the first-order rate constant of dissociation. The term kon denotes the second-order rate constant of association. As a reminder, the % Inhibition is the drop in the measured response relative to a control, in per cent. A low value points to a response near the control.
